Key:
[1] = target: Inactive αIIbβ3 (recombinant human ectodomain αIIbβ3 on DETA beads before activation) (human) (UniProt P08514); test: flow cytometry, 50 nM FITC-PAC-1 on inactive αIIbβ3 beads, n ≥ 3
[2] = target: Activated αIIbβ3 (recombinant human ectodomain αIIbβ3 on DETA beads after incubation in activation buffer with CaCl2, MnCl2 and MgCl2) (human) (UniProt P08514); test: flow cytometry, 50 nM FITC-PAC-1 on activated αIIbβ3 beads, n ≥ 3
[3] = target: T1, recombinant human ectodomain αIIbβ3 immobilized on a surface (activation state not stated at the place of the … (human, UniProt P08514 32-993; P05106 27-718); test: sandwich ELISA, fibrinogen dose response on plate-immobilized αIIbβ3, HRP labelled detection antibody
T1 construct: also called αIIbβ3 coupled beads; αIIbβ3 coated beads
T1 sequence (P08514 other isoform, or with tags, fused parts or gaps limits assumed, chain 1 of 2): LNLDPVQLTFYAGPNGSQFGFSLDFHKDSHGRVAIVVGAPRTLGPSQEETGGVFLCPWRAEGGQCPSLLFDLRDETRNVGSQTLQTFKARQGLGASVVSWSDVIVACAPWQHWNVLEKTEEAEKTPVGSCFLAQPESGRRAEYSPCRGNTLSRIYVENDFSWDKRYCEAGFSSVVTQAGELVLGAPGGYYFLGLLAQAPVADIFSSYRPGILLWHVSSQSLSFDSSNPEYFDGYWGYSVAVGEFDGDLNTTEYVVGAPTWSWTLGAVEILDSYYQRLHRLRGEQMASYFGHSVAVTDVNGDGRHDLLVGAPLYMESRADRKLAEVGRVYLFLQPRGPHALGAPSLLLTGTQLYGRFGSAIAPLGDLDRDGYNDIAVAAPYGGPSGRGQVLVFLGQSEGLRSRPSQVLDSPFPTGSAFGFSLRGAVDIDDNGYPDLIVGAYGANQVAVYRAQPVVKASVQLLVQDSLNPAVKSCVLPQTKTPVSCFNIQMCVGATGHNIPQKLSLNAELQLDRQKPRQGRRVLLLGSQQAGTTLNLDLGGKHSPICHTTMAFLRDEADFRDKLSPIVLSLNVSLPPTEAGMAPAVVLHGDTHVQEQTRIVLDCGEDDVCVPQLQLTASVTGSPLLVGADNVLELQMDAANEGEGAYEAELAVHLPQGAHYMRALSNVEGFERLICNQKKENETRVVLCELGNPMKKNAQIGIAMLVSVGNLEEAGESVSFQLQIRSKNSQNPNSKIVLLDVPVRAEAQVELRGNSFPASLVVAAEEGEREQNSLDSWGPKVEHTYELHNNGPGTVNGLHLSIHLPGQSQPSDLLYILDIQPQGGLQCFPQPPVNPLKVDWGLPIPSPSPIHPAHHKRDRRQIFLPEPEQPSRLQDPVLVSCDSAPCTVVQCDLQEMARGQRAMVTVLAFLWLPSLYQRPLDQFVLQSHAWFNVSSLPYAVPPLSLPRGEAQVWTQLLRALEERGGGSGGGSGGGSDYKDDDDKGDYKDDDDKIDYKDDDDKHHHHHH
T1 sequence (P05106 other isoform, or with tags, fused parts or gaps limits assumed, chain 2 of 2): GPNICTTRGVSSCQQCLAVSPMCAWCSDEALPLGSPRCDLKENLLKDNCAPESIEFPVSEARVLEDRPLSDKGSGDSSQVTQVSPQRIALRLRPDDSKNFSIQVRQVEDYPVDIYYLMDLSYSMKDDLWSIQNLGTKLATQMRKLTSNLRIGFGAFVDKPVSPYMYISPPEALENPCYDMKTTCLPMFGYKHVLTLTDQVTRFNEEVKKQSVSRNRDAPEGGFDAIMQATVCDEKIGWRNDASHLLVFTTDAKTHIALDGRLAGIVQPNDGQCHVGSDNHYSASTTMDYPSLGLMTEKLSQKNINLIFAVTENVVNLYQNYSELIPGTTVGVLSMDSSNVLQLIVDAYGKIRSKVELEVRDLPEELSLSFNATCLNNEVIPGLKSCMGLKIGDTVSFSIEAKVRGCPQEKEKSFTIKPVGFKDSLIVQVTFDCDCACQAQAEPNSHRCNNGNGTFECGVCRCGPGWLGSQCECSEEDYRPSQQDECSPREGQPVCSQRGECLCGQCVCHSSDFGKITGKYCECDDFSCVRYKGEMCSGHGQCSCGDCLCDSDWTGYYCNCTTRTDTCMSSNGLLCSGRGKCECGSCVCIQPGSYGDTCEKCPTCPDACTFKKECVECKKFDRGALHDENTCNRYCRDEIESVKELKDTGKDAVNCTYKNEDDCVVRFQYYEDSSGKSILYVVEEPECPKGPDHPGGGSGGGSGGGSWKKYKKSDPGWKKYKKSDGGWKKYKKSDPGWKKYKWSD
Description: Fibrinogen ELISA Assay. To ensure similar immobilization levels of recombinant human ectodomain αIIbβ3 between the ELISA plate and integrin coupled magnetic beads, the wells of a 96-well micro plate (Nunc MaxiSorp) were incubated with the same αIIbβ3 concentration per surface area as during the preparation of the magnetic beads, 6.6×10⁴ μg·mL⁻¹·cm⁻². Each well was coated with αIIbβ3 or control proteins (BSA and β3−/− platelet lysate) by incubation of 6 μg/μL protein in binding buffer (TRIS buffered saline with 0.05% TWEEN-20 and 1 mM each of MgCl₂, MnCl₂ and CaCl₂) at 4° C. overnight. Incubation of 3% skim milk (ED Millipore) and 2% TWEEN-20 for 1 hour at 37° C. was used for blocking. The concentration of αIIbβ3 per surface area of bead used when coating SAM coated beads is 6.6×10⁴ μg·mL⁻¹·cm⁻², therefore the wells of 96 well plates used were coated with the same density EDC/NHS quenching achieved by increase pH to 8.6. Bead concentration for synthesis: 6×10⁹ beads·mL⁻¹; Integrin-bead reaction concentration=250 μg·mL⁻¹; Integrin Used=6.6×10⁴ μg·mL⁻¹·cm⁻²; Well Surface Area (50 μL)=0.93 cm²; Concentration/wee for ELISA=6×10⁴ μg·mL⁻¹ (6 μL/well in 50 μL total volume); Stock [αIIbβ3]=5×10⁵ μg·mL⁻¹.
To evaluate the analytical potential of these αIIbβ3 coupled molecular probes, a flow cytometry sandwich assay was developed. […]

[4] = target: T1, recombinant human ectodomain αIIbβ3 …; test: flow cytometry sandwich assay, fibrinogen dose response on αIIbβ3 coupled beads, FITC labelled detection antibody, no blocking step
Text: To evaluate the analytical potential of these αIIbβ3 coupled molecular probes, a flow cytometry sandwich assay was developed. […] The same primary antibody was used for both assays, however, the detection antibody for ELISA was HRP labelled and for flow cytometry was FITC labelled. The fibrinogen does response curves are depicted in the inserts of each of FIGS. 5A and 5B. […] The flow cytometry based assay produced a significant increase in performance compared to ELISA, even though a blocking step and a signal amplification-based detection strategy were employed in ELISA. It was postulated that the significant increase in performance observed is due to the SAM and the immobilization strategy which promotes the high-affinity ligand binding conformation of the integrin.

Activated αIIbβ3 (recombinant human ectodomain αIIbβ3 on DETA beads after incubation in activation buffer with CaCl2, MnCl2 and MgCl2) (human), sequence (P08514 other isoform, or with tags, fused parts or gaps limits assumed, chain 1 of 2): as the sequence (P08514 other isoform, or with tags, fused parts or gaps limits assumed, chain 1 of 2) above
Activated αIIbβ3 (recombinant human ectodomain αIIbβ3 on DETA beads after incubation in activation buffer with CaCl2, MnCl2 and MgCl2) (human), sequence (chain, as listed by the source limits assumed, chain 2 of 2): as the sequence (P05106 other isoform, or with tags, fused parts or gaps limits assumed, chain 2 of 2) above
Inactive αIIbβ3 (recombinant human ectodomain αIIbβ3 on DETA beads before activation) (human), sequence (P08514 other isoform, or with tags, fused parts or gaps limits assumed, chain 1 of 2): as the sequence (P08514 other isoform, or with tags, fused parts or gaps limits assumed, chain 1 of 2) above
Inactive αIIbβ3 (recombinant human ectodomain αIIbβ3 on DETA beads before activation) (human), sequence (chain, as listed by the source limits assumed, chain 2 of 2): as the sequence (P05106 other isoform, or with tags, fused parts or gaps limits assumed, chain 2 of 2) above

Mean Fluorescence Intensity (MFI) [1] | Mean Fluorescence Intensity (MFI) [2] | Kd [3] | Kd [4] | Molecule
212 MFI | 942 MFI |  |  | PAC-1 (antibody)
 |  | 2200 nM | 210 nM | fibrinogen (ligand, Alexa488 label in the Table 2 assay, Native ligand of αIIbβ3; also called Alexa488 labelled fibrinogen; Alexa 488 - Fibrinogen) chain 1: ADSGEGDFLAEGGGVRGPRVVERHQSACKDSDWPFCSDEDWNYKCPSGCRMKGLIDEVNQDFTNRINKLKNSLFEYQKNNKDSHSLTTNIMEILRGDFSSANNRDNTYNRVSEDLRSRIEVLKRKVIEKVQHIQLLQKNVRAQLVDMKRLEVDIDIKIRSCRGSCSRALAREVDLKDYEDQQKQLEQVIAKDLLPSRDRQHLPLIKMKPVPDLVPGNFKSQLQKVPPEWKALTDMPQMRMELERPGGNEITRGGSTSYGTGSETESPRNPSSAGSWNSGSSGPGSTGNRNPGSSGTGGTATWKPGSSGPGSTGSWNSGSSGTGSTGNQNPGSPRPGSTGTWNPGSSERGSAGHWTSESSVSGSTGQWHSESGSFRPDSPGSGNARPNNPDWGTFEEVSGNVSPGTRREYHTEKLVTSKGDKELRTGKEKVTSGSTTTTRRSCSKTVTKTVIGPDGHKEVTKEVVTSEDGSDCPEAMDLGTLSGIGTLDGFRHRHPDEAAFFDTASTGKTFPGFFSPMLGEFVSETESRGSESGIFTNTKESSSHHPGIAEFPSRGKSSSYSKQFTSSTSYNRGDSTFESKSYKMADEAGSEADHEGTHSTKRGHAKSRPV chain 2: QGVNDNEEGFFSARGHRPLDKKREEAPSLRPAPPPISGGGYRARPAKAAATQKKVERKAPDAGGCLHADPDLGVLCPTGCQLQEALLQQERPIRNSVDELNNNVEAVSQTSSSSFQYMYLLKDLWQKRQKQVKDNENVVNEYSSELEKHQLYIDETVNSNIPTNLRVLRSILENLRSKIQKLESDVSAQMEYCRTPCTVSCNIPVVSGKECEEIIRKGGETSEMYLIQPDSSVKPYRVYCDMNTENGGWTVIQNRQDGSVDFGRKWDPYKQGFGNVATNTDGKNYCGLPGEYWLGNDKISQLTRMGPTELLIEMEDWKGDKVKAHYGGFTVQNEANKYQISVNKYRGTAGNALMDGASQLMGENRTMTIHNGMFFSTYDRDNDGWLTSDPRKQCSKEDGGGWWYNRCHAANPNGRYYWGGQYTWDMAKHGTDDGVVWMNWKGSWYSMRKMSMKIRPFFPQQ chain 3: YVATRDNCCILDERFGSYCPTTCGIADFLSTYQTKVDKDLQSLEDILHQVENKTSEVKQLIKAIQLTYNPDESSKPNMIDAATLKSRKMLEEIMKYEASILTHDSSIRYLQEIYNSNNQKIVNLKEKVAQLEAQCQEPCKDTVQIHDITGKDCQDIANKGAKQSGLYFIKPLKANQQFLVYCEIDGSGNGWTVFQKRLDGSVDFKKNWIQYKEGFGHLSPTGTTEFWLGNEKIHLISTQSAIPYALRVELEDWNGRTSTADYAMFKVGPEADKYRLTYAYFAGGDAGDAFDGFDFGDDPSDKFFTSHNGMQFSTWDNDNDKFEGNCAEQDGSGWWMNKCHAGHLNGVYYQGGTYSKASTPNGYDNGIIWATWKTRWYSMKKTTMKIIPFNRLTIGEGQQHHLGGAKQAGDV

Source: patent US20230194519A1 (CCOA THERAPEUTICS, published 2023)
